Our source for the MFI and Kd values is patent US20100330107A1.

One may read the Kd as the constant that tells how readily two partners part at equilibrium. A high value points to weaker binding.

The target in assay [1] is 24P4C12 (human) (UniProt Q53GD3). In words: FACS on LNCaP cells, ADC at 0.878 nM, anti-hIgG-PE detection.
For assay [2] the target is unchanged. In words: FACS saturation binding on LNCaP cells with endogenous 24P4C12, one site binding fit.
Assay [3] shares this target. As to the kind of experiment: FACS on LNCaP cells, ADC at 0.098 nM, anti-hIgG-PE detection.
Assay [4] has the same target. As to the kind of experiment: FACS on LNCaP cells, ADC at 0.033 nM, anti-hIgG-PE detection.
Assay [5] shares this target. In words: FACS on LNCaP cells, ADC at 71.111 nM, anti-hIgG-PE detection.
For assay [6] the target is unchanged. As to the kind of experiment: FACS on LNCaP cells, ADC at 0.293 nM, anti-hIgG-PE detection.
Assay [7] has the same target. As to the kind of experiment: FACS on LNCaP cells, ADC at 2.634 nM, anti-hIgG-PE detection.
For assay [8] the target is unchanged. In words: FACS on LNCaP cells, ADC at 160.000 nM, anti-hIgG-PE detection.
Assay [9] shares this target. In words: FACS on LNCaP cells, ADC at 7.901 nM, anti-hIgG-PE detection.
Assay [10] has the same target. As to the kind of experiment: FACS on LNCaP cells, ADC at 0.011 nM, anti-hIgG-PE detection.
The target is the same in assay [11]. In words: FACS on LNCaP cells, ADC at 106.667 nM, anti-hIgG-PE detection.
Assay [12] shares this target. As to the kind of experiment: FACS on LNCaP cells, ADC at 23.704 nM, anti-hIgG-PE detection.

UniProt Q53GD3, sequence (Q53GD3 whole entry): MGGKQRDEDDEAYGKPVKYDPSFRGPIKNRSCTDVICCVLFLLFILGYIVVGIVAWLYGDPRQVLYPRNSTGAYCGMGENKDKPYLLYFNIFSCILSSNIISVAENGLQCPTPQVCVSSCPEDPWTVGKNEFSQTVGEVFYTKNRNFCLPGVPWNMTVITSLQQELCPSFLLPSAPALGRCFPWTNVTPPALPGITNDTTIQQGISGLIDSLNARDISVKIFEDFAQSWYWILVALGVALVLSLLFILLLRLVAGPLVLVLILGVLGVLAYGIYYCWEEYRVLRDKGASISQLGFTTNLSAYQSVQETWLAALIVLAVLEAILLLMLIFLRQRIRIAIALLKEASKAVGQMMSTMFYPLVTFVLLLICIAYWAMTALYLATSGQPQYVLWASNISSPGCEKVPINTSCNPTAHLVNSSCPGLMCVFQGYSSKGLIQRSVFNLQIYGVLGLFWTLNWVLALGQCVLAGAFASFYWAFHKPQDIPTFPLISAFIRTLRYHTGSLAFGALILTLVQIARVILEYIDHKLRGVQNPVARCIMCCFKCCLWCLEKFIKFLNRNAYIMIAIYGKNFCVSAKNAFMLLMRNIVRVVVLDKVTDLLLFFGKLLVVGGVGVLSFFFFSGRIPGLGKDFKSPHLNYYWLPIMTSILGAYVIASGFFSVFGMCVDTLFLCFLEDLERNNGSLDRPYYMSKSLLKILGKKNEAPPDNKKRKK

B1: Ha5-1(5)2.1vcMMAE (antibody, human IgG2, kappa, V domains shown)
VH: QVQLVESGGGVVQPGRSLRLSCAASGFTFSSYGMHWVRQAPGKGLEWVAVMSYDGSKKFYTDSVKGRFTISRDNSKNTLYLQMNSLRAEDTAVYYCARDGGDYVRYHYYGMDVWGQGTTVTVSS
VL: DIQMTQSPSTLSASIGDRVTITCRASQGISYYLAWYQQKPGKIPKLLIYDTSSLQSGVPSRFSGSRSGTDLSLTISSLQPEDVATYYCQRYDSAPLTFGGGTKVEIKR
modifications: vcMMAE (Val-Cit linker with monomethyl auristatin E) on cysteine thiols freed by partial reduction with TCEP; p about 3.6 drugs per antibody; positions not given
B1: the MFI in the assay with 24P4C12 (human) [1] came out at 54 MFI; with 24P4C12 (human) [3], 15 MFI; with 24P4C12 (human) [4] it was 9 MFI; with 24P4C12 (human) [5], 108 MFI; with 24P4C12 (human) [6], 28 MFI; with 24P4C12 (human) [7], 70 MFI. The MFI in the assay with 24P4C12 (human) [8] amounted to 116 MFI; in the assay with 24P4C12 (human) [9] it was 86 MFI; with 24P4C12 (human) [10], 7 MFI; in the assay with 24P4C12 (human) [11] it was 114 MFI; in the assay with 24P4C12 (human) [12] it was 97 MFI. Moreover, the Kd with 24P4C12 (human) [2] is 1.05 nM.
